# Data as given in patent US20130336988A1, “METHODS FOR TREATING EARLY STAGE OR MILD NEUROLOGICAL DISORDERS” (NEW YORK UNIVERSITY, priority 2010, published 2013).
# T1: sortilin (Homo sapiens, UniProt Q99523)
# T1 construct: expressed in transfected cells; host or cells: HEK 293 cells (proBDNF) / 293T cells (proNGF)
# T1 sequence (Q99523 78-831): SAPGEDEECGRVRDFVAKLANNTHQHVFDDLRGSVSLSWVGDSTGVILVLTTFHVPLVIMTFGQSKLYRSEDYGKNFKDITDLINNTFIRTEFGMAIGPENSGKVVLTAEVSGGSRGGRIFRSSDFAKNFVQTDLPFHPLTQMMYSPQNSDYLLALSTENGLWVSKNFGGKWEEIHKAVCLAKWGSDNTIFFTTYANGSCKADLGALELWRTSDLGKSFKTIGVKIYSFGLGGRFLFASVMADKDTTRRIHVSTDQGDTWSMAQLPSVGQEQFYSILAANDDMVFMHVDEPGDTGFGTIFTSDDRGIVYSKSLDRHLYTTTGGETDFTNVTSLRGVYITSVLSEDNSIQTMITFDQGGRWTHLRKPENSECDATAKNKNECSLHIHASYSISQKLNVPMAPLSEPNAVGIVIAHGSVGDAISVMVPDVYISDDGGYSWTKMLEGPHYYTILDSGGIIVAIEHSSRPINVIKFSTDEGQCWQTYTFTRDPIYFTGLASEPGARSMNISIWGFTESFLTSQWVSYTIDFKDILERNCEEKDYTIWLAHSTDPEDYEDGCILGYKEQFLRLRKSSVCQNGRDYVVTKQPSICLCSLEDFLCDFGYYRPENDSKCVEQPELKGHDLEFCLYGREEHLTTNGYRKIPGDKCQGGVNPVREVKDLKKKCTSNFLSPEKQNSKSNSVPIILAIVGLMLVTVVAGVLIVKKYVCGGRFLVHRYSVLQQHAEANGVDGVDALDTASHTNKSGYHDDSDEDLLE
# Tests used:
# Rac = Rac activity assay (GST-Pak-CRIB pull-down of activated Rac); assay type: cell-based, mouse; conditions: mouse E15 DIV2 cortical neurons; 20 min; proBDNF with K252a
# Experimental: Rac activity assays were performed as described previously (NEUBRAND, V. E. et al., Journal of Cell Science 123:2111-2123 (2010)). […] Cells were lysed in lysis buffer supplemented with 10 mM MgCl, lysates were cleared by centrifugation at 9000 g for 1 min, and cleared lysates were incubated with GST or GST-Pak-CRIB beads for 30 min at 4° C. Beads were washed and isolated active Rac was analyzed by Western blot. As a control, extra lysates were incubated with 0.1 mM GDP or 0.1 mM GTPγS for 30 min at room temperature before incubation with GST-Pak-CRIB beads. Western blots were analyzed by densitometry using ImageJ software, and isolated active Rac was normalized to the input.
# GST and GST-Pak-CRIB proteins were expressed in E. coli BL21DE3 cells at 25° C. for 3 hours. Bacteria were disrupted by incubation with PBS supplemented with lysozyme on ice for 30 min and subsequent addition of 1 mM MgCl2, 0.1% TritonX-100 and 0.1 mg/ml DNAse for an additional 30 min. Bacterial lysates were cleared by centrifugation for 5 min at 3000 g and cleared lysates were incubated with glutathione sepharose. Beads were washed and the purity of the recombinant proteins was analyzed by Coomassie blue staining. 20 μg of sepharose coupled purified protein was used per reaction.
# sortilin = molecular target: T1, sortilin; test: Co-immunoprecipitation of proNT with sortilin in transfected 293 cells; assay type: binding; conditions: 293 cells co-transfected with proNT and myc-sortilin; IP-Western blot
# Experimental: FIG. 2A-G. ProNTs induce growth cone collapse. (A, B) DIV3 hippocampal neurons transfected with LifeAct-RFP were imaged by time-lapse microscopy before (top panel) and starting approximately 2 min after (bottom panel) treatment with proBDNF (A) or proNGF (B). Actin dynamics stalled upon proNT treatment and subsequently the growth cone collapsed. Time is indicated in (min:sec). Scale bars, 10 μm. (C, D) DIV3 hippocampal cultures were fixed and stained for p75^NTR (C) and SorCS2 (D). Arrows highlight growth cones. Scale bars, 20 μm. (E) Brain sections from 6-week old C57/BL6 mice were stained for SorCS2. DG, dentate gyrus. Arrows highlight expression in dentate granule dendrites. Scale bar, 200 μm. (F) Both sortilin and SorCS2 interact with proBDNF. HEK 293 cells were transfected with proBDNF-HA and myc-sortilin or mycSorCS2, lysates were immunoprecipitated with anti-HA agarose and analyzed by Western blot with indicated antibodies. (G) IP-WB from 293T cells showing interactions between proNGF and sortilin and SorCS2.
# The LifeAct sequence (RIEDL, J. et al., Nat Methods 5:605-607 (2008)) was cloned into the pEGFP-N1 backbone (Clontech) using the BglII and BamHI restriction sites. Trio constructs were described previously (FERRARO, F. et al., Mol Biol Cell 18:4813-4825 (2007)), human sortilin cDNA or human SorCS2 cDNA was subcloned into the pcDNA3.1 hygro expression vector (Invitrogen). […]
# p75^NTR/SorCS2 and Trio = molecular target: T2, p75^NTR/SorCS2 and Trio (Homo sapiens, UniProt P08138+Q96PQ0); test: Co-immunoprecipitation of Trio with p75NTR/SorCS2 after proNT treatment of HT1080 cells; assay type: cell-based; conditions: HT1080 cells expressing p75NTR and SorCS2; 20 min incubation; IP anti-p75NTR, Western blot
# T2 construct: HA; expressed in transfected cells; host or cells: HT-1080 cells
# T2 sequence (P08138 29-427): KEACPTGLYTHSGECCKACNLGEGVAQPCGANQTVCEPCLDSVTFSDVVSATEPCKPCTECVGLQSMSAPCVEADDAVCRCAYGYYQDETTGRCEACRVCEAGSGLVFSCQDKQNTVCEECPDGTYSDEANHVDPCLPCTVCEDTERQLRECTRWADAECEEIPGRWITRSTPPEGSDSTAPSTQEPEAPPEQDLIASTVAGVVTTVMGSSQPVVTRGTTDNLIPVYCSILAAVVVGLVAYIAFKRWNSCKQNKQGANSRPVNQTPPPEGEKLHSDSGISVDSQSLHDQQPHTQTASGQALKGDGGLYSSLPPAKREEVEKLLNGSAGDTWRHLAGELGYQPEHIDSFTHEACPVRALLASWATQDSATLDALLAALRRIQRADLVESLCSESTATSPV
# T2 sequence (Q96PQ0 70-1159 limits assumed): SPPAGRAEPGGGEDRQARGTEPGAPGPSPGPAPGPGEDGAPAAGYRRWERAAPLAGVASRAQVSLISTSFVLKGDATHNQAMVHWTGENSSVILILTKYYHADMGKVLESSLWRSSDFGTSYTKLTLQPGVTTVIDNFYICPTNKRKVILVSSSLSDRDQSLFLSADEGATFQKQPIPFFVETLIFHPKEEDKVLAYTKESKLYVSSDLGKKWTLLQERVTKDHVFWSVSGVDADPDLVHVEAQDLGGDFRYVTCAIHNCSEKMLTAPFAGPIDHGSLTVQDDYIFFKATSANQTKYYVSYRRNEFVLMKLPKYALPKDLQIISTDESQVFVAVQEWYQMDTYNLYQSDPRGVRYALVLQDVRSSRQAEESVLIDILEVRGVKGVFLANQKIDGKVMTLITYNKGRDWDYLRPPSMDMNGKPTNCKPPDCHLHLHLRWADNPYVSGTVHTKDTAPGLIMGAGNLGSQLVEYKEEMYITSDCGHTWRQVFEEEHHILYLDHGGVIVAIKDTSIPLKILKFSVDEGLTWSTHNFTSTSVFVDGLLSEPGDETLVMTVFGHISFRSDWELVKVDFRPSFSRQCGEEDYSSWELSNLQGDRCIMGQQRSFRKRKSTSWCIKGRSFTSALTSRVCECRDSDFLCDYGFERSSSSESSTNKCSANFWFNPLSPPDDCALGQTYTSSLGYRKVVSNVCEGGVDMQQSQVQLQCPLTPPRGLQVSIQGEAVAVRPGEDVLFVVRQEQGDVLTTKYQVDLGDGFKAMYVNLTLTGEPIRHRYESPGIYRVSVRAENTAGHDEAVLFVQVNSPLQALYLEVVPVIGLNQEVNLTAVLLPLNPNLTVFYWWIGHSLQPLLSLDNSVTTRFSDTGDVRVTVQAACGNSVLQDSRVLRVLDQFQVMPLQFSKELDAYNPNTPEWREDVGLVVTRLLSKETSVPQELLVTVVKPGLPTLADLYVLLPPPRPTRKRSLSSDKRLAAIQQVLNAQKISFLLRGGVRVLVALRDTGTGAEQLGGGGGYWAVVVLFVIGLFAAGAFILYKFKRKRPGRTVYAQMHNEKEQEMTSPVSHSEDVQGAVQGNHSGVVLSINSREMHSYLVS
# Experimental: HT-1080 cells were transfected with HA-p75^NTR and myc-SorCS2. 24-48 hours later, cells were treated with 25 ng/ml proNGF for 20 min where indicated. Cells were lysed with lysis buffer (50 mM Tris-HCl pH 8.0, 140 mM NaCl, 2 mM EDTA, 1% NP40, 10% glycerol) supplemented with protease inhibitors and complexes were immunoprecipitated using anti-HA agarose. To map the Trio domain required for the interaction with p75^NTR, 293T cells were transfected with HA-p75^NTR and constructs of the individual Trio domains. After 24 hours, cells were lysed as described above, and complexes were immunoprecipitated using anti-HA agarose or anti-Myc agarose as indicated.
interaction between p75NTR/SorCS2 and Trio (p75^NTR/SorCS2 and Trio),Molecule,Rac activity after proNT exposure (Rac),interaction with sortilin (co-immunoprecipitation) (sortilin)
markedly reduced the interaction,"proNGF: proneurotrophin precursor of nerve growth factor, produced in Sf9 cells and purified",significant decrease in Rac activity,co-immunoprecipitated with both sortilin and SorCS2
markedly reduced the interaction,proBDNF: murine proBDNF collected from supernatants of transfected 293 cells (protein) APMKEVNVHGQGNLAYPGVRTHGTLESVNGPRAGSRGLTTTSLADTFEHVIEELLDEDQKVRPNEENHKDADLYTSRVMLSSQVPLEPPLLFLLEEYKNYLDAANMSMRVRRHSDPARRGELSVCDSISEWVTAADKKTAVDMSGGTVTVLEKVPVSKGQLKQYFYETKCNPMGYTKEGCRGIDKRHWNSQCRTTQSYVRALTMDSKKRIGWRFIRIDTSCVCTLTIKRGR,significant decrease in Rac activity,interact
